From PMC8639918, “Mechanism of phosphate sensing and signaling revealed by rice SPX1-PHR2 complex structure” (Nature Communications, 2021) come the findings set out here.

Several values for one entry are separate records, joined by “and”; a condition that tells them apart may be missing. Equal entries are not always repeated.

Data set [1] deals with the molecule itself. In words: SEC-MALS; Superdex 200 Increase 10/300 GL, buffer C (20 mM Tris/HCl pH 8.0, 200 mM NaCl, 1 mM TCEP) without InsP6, 2–3 mg/ml, 4 °C. A general note: In gel filtration, larger molecules generally elute earlier.
The target of data set [2] is T1, SPX1^1–259 (C-terminally truncated fragment of rice SPX1) (rice, UniProt Q69XJ0 1-259).
T1 construct: also called OsSPX1; not shown: His10, N-terminal, cleaved; MsyB, N-terminal, cleaved
T1 sequence (looked up): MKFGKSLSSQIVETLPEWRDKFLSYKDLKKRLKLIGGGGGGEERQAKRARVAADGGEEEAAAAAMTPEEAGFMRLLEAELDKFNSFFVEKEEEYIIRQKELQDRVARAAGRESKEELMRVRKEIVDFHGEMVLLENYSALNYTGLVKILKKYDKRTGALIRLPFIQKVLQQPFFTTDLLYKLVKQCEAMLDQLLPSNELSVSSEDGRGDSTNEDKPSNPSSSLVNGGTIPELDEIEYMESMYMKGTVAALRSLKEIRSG
In words: SEC-MALS; Superdex 200 Increase 10/300 GL, buffer C (20 mM Tris/HCl pH 8.0, 200 mM NaCl, 1 mM TCEP) with 1 mM InsP6, 2–3 mg/ml, 4 °C. Conditions: both partners purified.

In data set [3] the target is T1, SPX1^1–259 (C-terminally truncated …). In words: ITC; PHR2^3M at 120 μM injected into SPX1^1–259 at 10 μM, in presence or absence of 1 mM InsP6; 25 °C; buffer F (20 mM HEPES/NaOH pH 7.5, 200 mM NaCl, 2 mM β-mercaptoethanol). The conditions noted are these: both partners purified. On the technique in general: ITC needs no label: the signal is the heat of the interaction.

In the next data set the target is T2, SPX1^1–198 (rice, UniProt Q69XJ0 1-198).
T2 construct: SPX1 (OsSPX1), rice, residues 1-198; also called SPX1 (residues 1–198); not shown: His10, N-terminal, cleaved; MsyB, N-terminal, cleaved
T2 sequence (looked up): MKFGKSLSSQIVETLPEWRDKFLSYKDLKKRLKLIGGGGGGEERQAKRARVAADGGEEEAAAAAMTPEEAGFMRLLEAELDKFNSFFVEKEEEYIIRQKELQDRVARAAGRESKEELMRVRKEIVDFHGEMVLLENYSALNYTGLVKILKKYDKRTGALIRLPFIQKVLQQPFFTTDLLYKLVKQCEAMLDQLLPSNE
In words: SEC; gel filtration of SPX1^1–198 and PHR2^248–380 and their mutants, buffer C (20 mM Tris/HCl pH 8.0, 200 mM NaCl, 1 mM TCEP) with or without InsP6 as the methods put it; samples incubated at 4 °C for 12 h (Figs. 2c, 5b, Supplementary Fig. 3a–d). The conditions noted are these: both partners purified.

The target of a further data set is T3, SPX1^1–198 Y180A (rice, UniProt Q69XJ0 1-198, Y180A).
T3 construct: SPX1 (OsSPX1), rice, residues 1-198; not shown: His10, N-terminal, cleaved; MsyB, N-terminal, cleaved
T3 sequence (looked up): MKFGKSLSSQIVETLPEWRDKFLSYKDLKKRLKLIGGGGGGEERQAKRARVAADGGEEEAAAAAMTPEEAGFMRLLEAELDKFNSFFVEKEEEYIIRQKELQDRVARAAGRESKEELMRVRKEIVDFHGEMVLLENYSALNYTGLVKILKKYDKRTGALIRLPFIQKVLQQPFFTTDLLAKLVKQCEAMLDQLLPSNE
The data set is described as above. Conditions: both partners purified.

The next data set concerns the target T4, SPX1^1–198 E135A (rice, UniProt Q69XJ0 1-198, E135A).
T4 construct: SPX1 (OsSPX1), rice, residues 1-198; not shown: His10, N-terminal, cleaved; MsyB, N-terminal, cleaved
T4 sequence (looked up): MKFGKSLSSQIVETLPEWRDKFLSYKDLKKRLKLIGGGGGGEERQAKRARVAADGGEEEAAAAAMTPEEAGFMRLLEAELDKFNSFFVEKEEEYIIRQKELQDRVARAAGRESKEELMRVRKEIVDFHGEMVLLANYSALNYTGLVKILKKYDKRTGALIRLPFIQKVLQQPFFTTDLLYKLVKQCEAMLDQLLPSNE
The data set is described as above. Conditions: both partners purified.

B1: Arabidopsis PHR1^227–358 (MYB and CC domains only) (domain or fragment)
chain: not shown
notes: The methods describe only SPX1 and PHR2 constructs; also called AtPHR1
One may read the stoichiometry N as a count of units in the complex or per binding partner. As to B1, the “stoichiometry N” value in data set [1] was found to be 2.

B2: PHR2^230–426 (MYB and CC domain-containing fragment of rice PHR2) (domain or fragment)
chain: not shown
notes: Alone in solution a mixture of dimer and tetramer; one copy in the complex with SPX1; not shown: His10, N-terminal, cleaved; MsyB, N-terminal, cleaved
For B2, the “stoichiometry N” value in data set [2] is 1; in data set [1], 2 and 4.

B3: PHR2^(230–426 L348A/L358A/I362A) (domain or fragment)
chain: not shown
notes: also called PHR2^3M; PHR2 monomeric mutant; not shown: His10, N-terminal, cleaved; MsyB, N-terminal, cleaved
In general, Kd refers to the constant that tells how readily two partners part at equilibrium. Lower therefore signals tighter binding. On to B3, for which the Kd in data set [3] was ~170 nM.

B4: PHR2^248–380 (domain or fragment)
chain: not shown
notes: PHR2 (OsPHR2), rice, residues 248-380; also called PHR2 (residues 248–380); not shown: His10, N-terminal, cleaved; MsyB, N-terminal, cleaved
Turning to B4, the binding result with SPX1^1–198, in the data set with SPX1^1–198 Y180A and with SPX1^1–198 E135A was “binds” throughout.

B5: PHR2^248–380 R248A (domain or fragment)
chain: not shown
notes: PHR2 (OsPHR2), rice, residues 248-380; also called PHR2 R248 mutant; not shown: His10, N-terminal, cleaved; MsyB, N-terminal, cleaved
In the case of B5, the binding result with SPX1^1–198 is given as “binds”.

B6: PHR2^248–380 E257A (domain or fragment)
chain: not shown
notes: PHR2 (OsPHR2), rice, residues 248-380; also called PHR2 E257 mutant; not shown: His10, N-terminal, cleaved; MsyB, N-terminal, cleaved
For the molecule B6, in the data set with SPX1^1–198, the binding result was “binds”.

B7: PHR2^248–380 E353A (domain or fragment)
chain: not shown
notes: PHR2 (OsPHR2), rice, residues 248-380; not shown: His10, N-terminal, cleaved; MsyB, N-terminal, cleaved
For B7, the binding result with SPX1^1–198 was “binds”.

B8: PHR2^248–380 E363A (domain or fragment)
chain: not shown
notes: as for B7
Regarding B8, the binding result in the data set with SPX1^1–198 is recorded as “binds”.
